Legend:
[1] = target: T1, human EFNA4 expressed on cells (human, UniProt P52798 26-170); assay: flow cytometry, HCC202 breast cells (endogenous EFNA4), 10 µg/ml antibody
T1 sequence: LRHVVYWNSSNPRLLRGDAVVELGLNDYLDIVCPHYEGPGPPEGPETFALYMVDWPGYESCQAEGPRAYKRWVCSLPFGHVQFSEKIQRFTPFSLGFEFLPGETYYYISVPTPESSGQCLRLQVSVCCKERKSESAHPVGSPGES

[2] = target: T1, human EFNA4 expressed on cells; assay: flow cytometry, MX-1 breast cells (endogenous EFNA4), 10 µg/ml antibody
[3] = target: T1, human EFNA4 expressed on cells; assay: flow cytometry, MEC1 B-CLL cells (endogenous EFNA4), 10 µg/ml antibody
[4] = target: T1, human EFNA4 expressed on cells; assay: flow cytometry, Z138 mantle cell lymphoma cells (endogenous EFNA4), 10 µg/ml antibody
[5] = target: T2, monomeric human Ephrin-A4 (human), P52798; assay: SPR (BIAcore 2000), Eph receptor captured via anti-human antibody capture kit, monomeric human Ephrin-A4 12-400 nM as analyte, steady state affinity fit; details: remark: other sources report otherwise
T2 chain: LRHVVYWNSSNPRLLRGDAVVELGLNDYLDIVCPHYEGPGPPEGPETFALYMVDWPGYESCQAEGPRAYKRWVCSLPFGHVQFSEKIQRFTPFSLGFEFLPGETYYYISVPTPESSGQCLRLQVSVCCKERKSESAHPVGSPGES

[6] = target: T3, Ephrin-A4-huFc (R&D) (human, UniProt P52798 26-170); assay: direct ELISA, Ephrin-A4-huFc coated on the plate, biotin-labeled huE22, streptavidin-HRP, OD450
T3 construct: bought reagent; also called Ephrin-A4 (EFNA4); EFNA4; not shown: human Fc
T3 sequence: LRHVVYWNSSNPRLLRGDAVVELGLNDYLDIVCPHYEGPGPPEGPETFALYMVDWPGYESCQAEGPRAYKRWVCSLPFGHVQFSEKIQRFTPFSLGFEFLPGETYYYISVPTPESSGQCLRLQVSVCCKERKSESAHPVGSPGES

[7] = target: T4, human EFNA4 antigen (ephrin-A4 ligand) (human, UniProt P52798 26-170); assay: Hu Ag Affinity (Humanized mAb); method not stated
T4 construct: also called Hu Ag
T4 sequence: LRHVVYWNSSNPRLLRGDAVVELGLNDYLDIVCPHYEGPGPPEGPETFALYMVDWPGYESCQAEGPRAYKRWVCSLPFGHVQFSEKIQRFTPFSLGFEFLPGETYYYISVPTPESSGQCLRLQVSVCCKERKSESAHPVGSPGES

[8] = target: T1, human EFNA4 expressed on cells; assay: cell-based or functional assay
[9] = target: T1, human EFNA4 expressed on cells; assay: cell-based or functional assay; remark: listed apart in the source
[10] = target: T5, Ephrin-A1-His (R&D) (UniProt P20827 19-182); assay: direct ELISA, Ephrin-A1-His coated on the plate, biotin-labeled huE22, streptavidin-HRP, OD450
T5 construct: also called Ephrin-A1 (EFNA1); EFNA1; not shown: His tag
T5 sequence (looked up): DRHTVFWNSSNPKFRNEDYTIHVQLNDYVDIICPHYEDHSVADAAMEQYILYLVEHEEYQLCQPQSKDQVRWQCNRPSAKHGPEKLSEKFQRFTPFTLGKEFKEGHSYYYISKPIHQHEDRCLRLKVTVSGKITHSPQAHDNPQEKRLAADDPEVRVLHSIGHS

[11] = target: T6, recombinant rat EFNA4 extracellular domain fused to a histidine tag (rat, UniProt D3ZEN1 26-173); assay: SPR (BIAcore 2000), recombinant EFNA4 ECD-His
T6 construct: extracellular domain; also called rat antigen; not shown: histidine tag
T6 sequence: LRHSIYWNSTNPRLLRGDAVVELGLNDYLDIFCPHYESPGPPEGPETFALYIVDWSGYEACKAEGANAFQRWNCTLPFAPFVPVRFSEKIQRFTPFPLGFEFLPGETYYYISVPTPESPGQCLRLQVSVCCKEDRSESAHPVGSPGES

[12] = target: T7, recombinant human EFNA4 extracellular domain fused to a histidine tag (human, UniProt P52798 26-170); assay: SPR (BIAcore 2000), recombinant EFNA4 ECD-His
T7 construct: also called hEFNA4-ECD-His; not shown: histidine tag
T7 sequence: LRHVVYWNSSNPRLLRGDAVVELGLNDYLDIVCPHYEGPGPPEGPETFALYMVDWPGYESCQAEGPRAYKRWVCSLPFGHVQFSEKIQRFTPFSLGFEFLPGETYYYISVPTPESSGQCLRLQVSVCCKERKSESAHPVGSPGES

[13] = target: T8, recombinant cynomolgus monkey EFNA4 extracellular domain fused to a histidine tag (cynomolgus monkey, UniProt A0A2K5U3S7 84-228); assay: SPR (BIAcore 2000), recombinant EFNA4 ECD-His
T8 construct: extracellular domain; not shown: histidine tag
T8 sequence: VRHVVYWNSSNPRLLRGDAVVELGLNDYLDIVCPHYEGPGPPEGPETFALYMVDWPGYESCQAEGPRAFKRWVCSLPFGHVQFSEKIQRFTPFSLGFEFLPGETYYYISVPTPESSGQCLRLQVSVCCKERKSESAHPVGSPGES

[14] = target: T9, Ephrin-A3-huFc (R&D) (UniProt P52797 23-214, limits assumed); assay: direct ELISA, Ephrin-A3-huFc coated on the plate, biotin-labeled huE22, streptavidin-HRP, OD450
T9 construct: also called Ephrin-A3 (EFNA3); EFNA3; not shown: human Fc
T9 sequence (looked up): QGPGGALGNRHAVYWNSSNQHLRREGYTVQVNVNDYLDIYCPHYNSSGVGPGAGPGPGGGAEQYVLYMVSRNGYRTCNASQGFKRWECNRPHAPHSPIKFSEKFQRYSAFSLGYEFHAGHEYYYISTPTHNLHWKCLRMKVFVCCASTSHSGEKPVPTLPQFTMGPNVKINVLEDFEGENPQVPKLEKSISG

[15] = target: T10, Ephrin-A5-huFc (R&D) (UniProt P52803 21-203); assay: direct ELISA, Ephrin-A5-huFc coated on the plate, biotin-labeled huE22, streptavidin-HRP, OD450
T10 construct: also called EFNA5; not shown: human Fc
T10 sequence (looked up): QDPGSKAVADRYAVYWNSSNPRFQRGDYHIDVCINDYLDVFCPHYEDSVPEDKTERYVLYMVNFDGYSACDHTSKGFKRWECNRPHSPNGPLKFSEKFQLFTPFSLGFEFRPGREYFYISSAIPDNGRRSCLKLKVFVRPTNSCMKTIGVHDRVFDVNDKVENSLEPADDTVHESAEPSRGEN

[16] = target: T1, human EFNA4 expressed on cells; assay: cell-based or functional assay; remark: listed apart in the source
[17] = target: T9, Ephrin-A3-huFc (R&D); assay: direct ELISA, Ephrin-A3-huFc coated on the plate, biotin-labeled huE47, streptavidin-HRP, OD450
Procedure: (§1) Antibody binding was determined by direct ELISA with Ephrin-A1-His, Ephrin-A3-huFc, Ephrin-A4-huFc and Ephrin-A5-huFc (all from R&D) coated on BioOne Microlon (Greiner) plates in PBS overnight at 4° C.

[18] = target: T5, Ephrin-A1-His (R&D); assay: direct ELISA, Ephrin-A1-His coated on the plate, biotin-labeled huE47, streptavidin-HRP, OD450
Procedure: as §1

Molecule: Non-binding control IgG (antibody)
- Mean Channel Fluorescent (MCF) [1]: 15.6
- Mean Channel Fluorescent (MCF) [2]: 3.6
- Mean Channel Fluorescent (MCF) [3]: 7.2
- Mean Channel Fluorescent (MCF) [4]: 7.4

B1: recombinant EphA1 receptor (commercially available), P21709 26-547 (receptor, UniProt P21709 26-547, looked up)
chain: KEVTLMDTSKAQGELGWLLDPPKDGWSEQQQILNGTPLYMYQDCPMQGRRDTDHWLRSNWIYRGEEASRVHVELQFTVRDCKSFPGGAGPLGCKETFNLLYMESDQDVGIQLRRPLFQKVTTVAADQSFTIRDLVSGSVKLNVERCSLGRLTRRGLYLAFHNPGACVALVSVRVFYQRCPETLNGLAQFPDTLPGPAGLVEVAGTCLPHARASPRPSGAPRMHCSPDGEWLVPVGRCHCEPGYEEGGSGEACVACPSGSYRMDMDTPHCLTCPQQSTAESEGATICTCESGHYRAPGEGPQVACTGPPSAPRNLSFSASGTQLSLRWEPPADTGGRQDVRYSVRCSQCQGTAQDGGPCQPCGVGVHFSPGARGLTTPAVHVNGLEPYANYTFNVEAQNGVSGLGSSGHASTSVSISMGHAESLSGLSLRLVKKEPRQLELTWAGSRPRSPGANLTYELHVLNQDEERYQMVLEPRVLLTELQPDTTYIVRVRMLTPLGPGPFSPDHEFRTSPPVSRGLTGGE
- Kd [5]: 414 nM

B2: recombinant EphB3 receptor (commercially available), P54753 34-559 (receptor, UniProt P54753 34-559, looked up)
chain: GCRALEETLMDTKWVTSELAWTSHPESGWEEVSGYDEAMNPIRTYQVCNVRESSQNNWLRTGFIWRRDVQRVYVELKFTVRDCNSIPNIPGSCKETFNLFYYEADSDVASASSPFWMENPYVKVDTIAPDESFSRLDAGRVNTKVRSFGPLSKAGFYLAFQDQGACMSLISVRAFYKKCASTTAGFALFPETLTGAEPTSLVIAPGTCIPNAVEVSVPLKLYCNGDGEWMVPVGACTCATGHEPAAKESQCRPCPPGSYKAKQGEGPCLPCPPNSRTTSPAASICTCHNNFYRADSDSADSACTTVPSPPRGVISNVNETSLILEWSEPRDLGGRDDLLYNVICKKCHGAGGASACSRCDDNVEFVPRQLGLTERRVHISHLLAHTRYTFEVQAVNGVSGKSPLPPRYAAVNITTNQAAPSEVPTLRLHSSSGSSLTLSWAPPERPNGVILDYEMKYFEKSEGIASTVTSQMNSVQLDGLRPDARYVVQVRARTVAGYGQYSRPAEFETTSERGSGAQQLQEQLPL
- Kd [5]: 108 nM

B3: humanized anti-EFNA4 antibody huE22 (antibody, human IgG1, kappa, V domains shown)
VH: QVQLVQSGAEVKKPGASVKVSCKASGYTFTGYYIHWVRQAPGQGLEWMGWIYPGNFNTKYNERFKGRVTMTTDTSTSTAYMELRSLRSDDTAVYYCAREDGSPYYAMDYWGQGTSVTVSS
VL: DIVMTQTPLSLSVTPGQPASISCRSSQSLVHSNGNTFLYWYLQKPGQSPQLLIYRVSNRFSGVPDRFSGSGSGTDFTLKISRVEAEDVGVYYCFQATHVPWTFGGGTKVEIKR
notes: human IgG1 / kappa; also called huE22 mAb; unconjugated huE22
- EC50 (read off the curve) [6]: ~4 ng/mL
- Kd [7]: 3.8 nM
- specificity of saporin-mediated cytotoxicity, HEK293T-EFNA4 over HEK293T parental cells [8]: ~60 fold
- Saporin-mediated cytotoxicity IC50 (MTS viability), HEK293T parent cells, huE22 plus saporin-conjugated anti-human Fab [9]: 174 ng/mL
- Saporin-mediated cytotoxicity IC50 (MTS viability), HEK293T-EFNA4 cells, huE22 plus saporin-conjugated anti-human Fab [9]: 3 ng/mL
- binding result [10]: no binding (tested: 1000 ng/ml)
- binding result [11]: no binding (tested: 400 nM antigen)
- Kd [12]: 1.7 nM
- koff [12]: 0.0033 s⁻¹
- kon [12]: 1.9e+06 M⁻¹ s⁻¹
- Kd [13]: 2.1 nM
- koff [13]: 0.0078 s⁻¹
- kon [13]: 3.8e+06 M⁻¹ s⁻¹
- binding result [14]: no binding (tested: 1000 ng/ml)
- binding result [15]: no binding (tested: 1000 ng/ml)

B4: huE22-AcBut-CM antibody-drug conjugate (antibody, V domains shown)
VH: QVQLVQSGAEVKKPGASVKVSCKASGYTFTGYYIHWVRQAPGQGLEWMGWIYPGNFNTKYNERFKGRVTMTTDTSTSTAYMELRSLRSDDTAVYYCAREDGSPYYAMDYWGQGTSVTVSS
VL: DIVMTQTPLSLSVTPGQPASISCRSSQSLVHSNGNTFLYWYLQKPGQSPQLLIYRVSNRFSGVPDRFSGSGSGTDFTLKISRVEAEDVGVYYCFQATHVPWTFGGGTKVEIKR
modifications: AcBut-N-acetyl-gamma-calicheamicin dimethyl hydrazide (AcBut-CM) conjugated via lysine residues (sites not given); average DAR about 3 to 5
notes: also called huE22-AcBut-CM ADC; huE22-ActBut-CM
- Anti-EFNA4-AcBut-CM cytotoxicity IC50 (MTS viability, 96 h), HEK293T-EFNA4 cells [16]: 1 ng/mL
- binding result [11]: no binding (tested: 400 nM antigen)
- Kd [12]: 2.3 nM
- koff [12]: 0.0061 s⁻¹
- kon [12]: 2.6e+06 M⁻¹ s⁻¹
- Kd [13]: 2.7 nM
- koff [13]: 0.011 s⁻¹
- kon [13]: 4.2e+06 M⁻¹ s⁻¹

B5: humanized anti-EFNA4 antibody huE15 (antibody, human IgG1, V domains shown)
VH: EVQLVESGGGLVKPGGSLRLSCAASGFTFSTYGMSWVRQAPGKGLEWVATISSGGTYTYYPDSVKGRFKISRDNAKNSLYLQMNSLRAEDTAVYYCTRHDPNDGYYFLFAYWGQGTLVTVSS
VL: EIVLTQSPGTLSLSPGERATLSCKASQSVGNNVAWYQQKPGQAPRLLIYYASNRYTGIPDRFSGSGSGTDFTLTISRLEPEDFAVYYCQQHYSSPLTFGAGTKLEIK
- Kd [7]: 4.8 nM

B6: humanized anti-EFNA4 antibody huE47 (antibody, human IgG1, kappa, V domains shown)
VH: QVQLVQSGAEVKKPGASVKVSCKASGYTFTYFYMNWVRQAPGQGLEWVGQINPNNGGTAYAQKFQGRVTMTRDTSTSTVYMELSSLRSEDTAVYYCARWVGTHYFDYWGQGTTLTVSS
VL: EIVLTQSPATLSLSPGERATLSCRASQSVSSSSYTYIHWYQQKPGQAPRLLINFASNLESGIPARFSGSGSGTDFTLTISSLEPEDFAVYYCQHSWEIPPTFGGGTKLEIKR
notes: human IgG1 / kappa
- Kd [7]: < 0.1 nM
- binding result [17]: no binding (tested: 1000 ng/ml)
- binding result [18]: no binding (tested: 1000 ng/ml)

— patent US20180296691A1 (Pfizer, published 2018)
